From paper PMC10397247
Like-named read-outs stand apart in the source and are kept apart here.

Columns and labels:
Experiment in all cases: two-hybrid library CCmax;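 further: natural log of median RNA to DNA barcode read ratio; higher means stronger binding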
4H2611-AA = biological target: T1, 4H2611-AA
T1 chain: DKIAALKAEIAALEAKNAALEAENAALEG

4H2620-AA = biological target: T2, 4H2620-AA; details: mean of both orientations
T2 chain: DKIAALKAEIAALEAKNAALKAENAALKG

4H2648-AA = biological target: T3, 4H2648-AA; details: mean of both orientations
T3 chain: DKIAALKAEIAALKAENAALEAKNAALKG

4H2774-AA = biological target: T4, 4H2774-AA; details: mean of both orientations
T4 chain: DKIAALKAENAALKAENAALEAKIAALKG

4H2907-AA = biological target: T5, 4H2907-AA; details: mean of both orientations
T5 chain: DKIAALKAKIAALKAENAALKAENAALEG

4H3001-AA = biological target: T6, 4H3001-AA; details: mean of both orientations
T6 chain: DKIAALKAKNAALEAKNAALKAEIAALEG

4H3056-AA = biological target: T7, 4H3056-AA; details: mean of both orientations
T7 chain: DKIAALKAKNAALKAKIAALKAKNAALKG

4H3133-AA = biological target: T8, 4H3133-AA; details: mean of both orientations
T8 chain: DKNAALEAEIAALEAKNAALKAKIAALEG

4H3162-AA = biological target: T9, 4H3162-AA; details: mean of both orientations
T9 chain: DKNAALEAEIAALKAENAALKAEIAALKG

4H32-AA = biological target: T10, 4H32-AA; details: mean of both orientations
T10 chain: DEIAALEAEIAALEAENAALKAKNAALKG

4H3340-AA = biological target: T11, 4H3340-AA; details: mean of both orientations
T11 chain: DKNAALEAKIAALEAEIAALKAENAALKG

4H3378-AA = biological target: T12, 4H3378-AA; details: mean of both orientations
T12 chain: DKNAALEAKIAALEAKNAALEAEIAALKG

4H3381-AA = biological target: T13, 4H3381-AA; details: mean of both orientations
T13 chain: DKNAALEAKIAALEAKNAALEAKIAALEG

4H340-AA = biological target: T14, 4H340-AA; details: mean of both orientations
T14 chain: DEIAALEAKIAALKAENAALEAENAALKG

4H3413-AA = biological target: T15, 4H3413-AA; details: mean of both orientations
T15 chain: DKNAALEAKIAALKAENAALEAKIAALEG

4H347-AA = biological target: T16, 4H347-AA; details: mean of both orientations
T16 chain: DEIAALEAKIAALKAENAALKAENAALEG

4H3493-AA = biological target: T17, 4H3493-AA; details: mean of both orientations
T17 chain: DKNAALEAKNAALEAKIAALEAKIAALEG

4H3588-AA = biological target: T18, 4H3588-AA; details: mean of both orientations
T18 chain: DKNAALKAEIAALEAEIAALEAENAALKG

4H3606-AA = biological target: T19, 4H3606-AA; details: mean of both orientations
T19 chain: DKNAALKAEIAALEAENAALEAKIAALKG

4H3631-AA = biological target: T20, 4H3631-AA; details: mean of both orientations
T20 chain: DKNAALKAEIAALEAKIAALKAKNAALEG

4H3697-AA = biological target: T21, 4H3697-AA; details: mean of both orientations
T21 chain: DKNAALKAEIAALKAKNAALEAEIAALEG

4H3718-AA = biological target: T22, 4H3718-AA; details: mean of both orientations
T22 chain: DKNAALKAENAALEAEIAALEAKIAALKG

4H376-AA = biological target: T23, 4H376-AA; details: mean of both orientations
T23 chain: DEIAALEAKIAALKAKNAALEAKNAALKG

4H384-AA = biological target: T24, 4H384-AA; details: mean of both orientations
T24 chain: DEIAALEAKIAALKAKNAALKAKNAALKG

4H3865-AA = biological target: T25, 4H3865-AA
T25 chain: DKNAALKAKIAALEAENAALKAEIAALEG

4H406-AA = biological target: T26, 4H406-AA; details: mean of both orientations
T26 chain: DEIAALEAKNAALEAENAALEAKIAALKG

4H688-AA = biological target: T27, 4H688-AA; details: mean of both orientations
T27 chain: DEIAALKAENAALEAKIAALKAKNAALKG

4H697-AA = biological target: T28, 4H697-AA
T28 chain: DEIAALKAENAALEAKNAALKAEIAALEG

4H963-AA = biological target: T29, 4H963-AA; details: mean of both orientations
T29 chain: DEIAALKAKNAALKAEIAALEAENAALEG

4H982-AA = biological target: T30, 4H982-AA; details: mean of both orientations
T30 chain: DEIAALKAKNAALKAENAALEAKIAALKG

4H2592-AA = biological target: T31, 4H2592-AA
T31 chain: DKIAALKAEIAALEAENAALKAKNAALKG

4H2732-AA = biological target: T32, 4H2732-AA; details: mean of both orientations
T32 chain: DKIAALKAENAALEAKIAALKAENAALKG

4H2931-AA = biological target: T33, 4H2931-AA; details: mean of both orientations
T33 chain: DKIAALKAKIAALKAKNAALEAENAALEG

4H3015-AA = biological target: T34, 4H3015-AA; details: mean of both orientations
T34 chain: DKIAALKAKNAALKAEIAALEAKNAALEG

4H3073-AA = biological target: T35, 4H3073-AA; details: mean of both orientations
T35 chain: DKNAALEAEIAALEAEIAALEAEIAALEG

4H3438-AA = biological target: T36, 4H3438-AA; details: mean of both orientations
T36 chain: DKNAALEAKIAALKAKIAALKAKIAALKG

4H452-AA = biological target: T37, 4H452-AA; details: mean of both orientations
T37 chain: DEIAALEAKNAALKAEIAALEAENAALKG

4H56-AA = biological target: T38, 4H56-AA; details: mean of both orientations
T38 chain: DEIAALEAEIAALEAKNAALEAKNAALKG

4H_APH = biological target: T39, 4H_APH; details: mean of both orientations
T39 chain: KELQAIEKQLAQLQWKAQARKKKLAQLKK

4H_BCR = biological target: T40, 4H_BCR; details: mean of both orientations
T40 chain: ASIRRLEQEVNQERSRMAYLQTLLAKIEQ

4H_GCN4 = biological target: 4H_GCN4
4H_GCN4, sequence (chain, as listed by the source): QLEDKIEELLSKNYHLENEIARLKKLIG

GCN2_T = biological target: GCN2_T

## DKIAALKAEIAALEAKNAALEAENAALEG [4H2611-AA]
4H2611-AA
  interaction score: -1.29
4H2620-AA
  interaction score: 0.167
4H2648-AA
  interaction score: 1.2
4H2774-AA
  interaction score: -1.54
4H2907-AA
  interaction score: -1.28
4H3001-AA
  interaction score: -1.69
4H3056-AA
  interaction score: -1.57
4H3133-AA
  interaction score: -1.77
4H3162-AA
  interaction score: -1.57
4H32-AA
  interaction score: 1.56
4H3340-AA
  interaction score: -1.49
4H3378-AA
  interaction score: -2.55
4H3381-AA
  interaction score: -1.73
4H340-AA
  interaction score: 1.81
4H3413-AA
  interaction score: -1.32
4H347-AA
  interaction score: -0.637
4H3493-AA
  interaction score: -1.87
4H3588-AA
  interaction score: -1.55
4H3606-AA
  interaction score: -1.56
4H3631-AA
  interaction score: -0.311
4H3697-AA
  interaction score: -2.02
4H3718-AA
  interaction score: -0.987
4H376-AA
  interaction score: 1.87
4H384-AA
  interaction score: 2.04
4H3865-AA
  interaction score: -1.39
4H406-AA
  interaction score: -1.29
4H688-AA
  interaction score: -1.66
4H697-AA
  interaction score: -2.17
4H963-AA
  interaction score: -1.66
4H982-AA
  interaction score: -1.45

## DKIAALKAEIAALEAENAALKAKNAALKG [4H2592-AA]
4H2592-AA
  interaction score: 1.34
4H2611-AA; mean of both orientations
  interaction score: 0.971
4H2732-AA
  interaction score: 0.248
4H2774-AA
  interaction score: 0.283
4H2931-AA
  interaction score: 1.75
4H3001-AA
  interaction score: -1.68
4H3015-AA
  interaction score: -1.39
4H3073-AA
  interaction score: -0.000754
4H3340-AA
  interaction score: 0.143
4H3381-AA
  interaction score: -1.72
4H3438-AA
  interaction score: -0.819
4H347-AA
  interaction score: 1.59
4H3493-AA
  interaction score: -1.21
4H376-AA
  interaction score: 0.226
4H406-AA
  interaction score: -1.19
4H452-AA
  interaction score: -0.641
4H56-AA
  interaction score: -0.726
4H688-AA
  interaction score: -1.42
4H963-AA
  interaction score: -0.435
4H_APH
  interaction score: -1.66
4H_BCR
  interaction score: -1.75
4H_GCN4
  interaction score: -1.33
GCN2_T
  interaction score: -1.04
